Reference: patent US20220348635A1, “COMPOSITIONS AND METHODS FOR NEUROLOGICAL DISEASES” (Coda Biotherapeutics, Inc., priority 2019, published 2022)
Substitutions are numbered along the chain they refer to. Names and notes keep the numbering of the source.

B1: L131S, S172D in SEQ ID NO: 33: engineered chimeric α7-nAChR/GlyRα1 LGIC receptor: SEQ ID NO: 33 with substitutions L131S and S172D (protein)
chain: MRCSPGGVWLALAASLLHVSLQGEFQRKLYKELVKNYNPLERPVANDSQPLTVYFSLSLLQIMDVDEKNQVLTTNIWLQMSWTDHYLQWNVSEYPGVKTVRFPDGQIWKPDILLYNSADERFDATFHTNVSVNSSGHCQYLPPGIFKSSCPMDLKNFPMDVQTCKLKFGSWDYGGWSLDLQMQEADISGYIPNGEWDLVGIPGKRSERFYECCKEPYPDVTFTVTMRRRMGYYLIQMYIPSLLIVILSWISFWINMDAAPARVGLGITTVLTMTTQSSGSRASLPKVSYVKAIDIWMAVCLLFVFSALLEYAAVNFVSRQHKELLRFRRKRRHHKSPMLNLFQEDEAGEGRFNFSAYGMGPACLQAKDGISVKGANNSNTTNPPPAPSKSPEEMRKLFIQRAKKIDKISRIGFPMAFLIFNMFYWIIYKIVRREDVHNQ
modifications: synthetic sequence of chimeric LGIC
B2: Y115E in SEQ ID NO: 33: SEQ ID NO: 33 chimeric receptor with single substitution Y115E (protein)
chain: B1 chain with Y115E, S131L, D172S
modifications: synthetic sequence of chimeric LGIC
B3: Y115D in SEQ ID NO: 33: SEQ ID NO: 33 chimeric receptor with single substitution Y115D (protein)
chain: B1 chain with Y115D, S131L, D172S
modifications: synthetic sequence of chimeric LGIC
B4: L131T, S172D in SEQ ID NO: 33: engineered chimeric α7-nAChR/GlyRα1 LGIC receptor: SEQ ID NO: 33 with substitutions L131T and S172D (protein)
chain: B1 chain with S131T
modifications: synthetic sequence of chimeric LGIC

Experiments:
Format in all cases: cell-based
[1] = YFP quench plate reader assay, response to TC-6987; conditions: LX293T YFP reporter cells; for percent quench of YFP fluorescence, 1 uM tc6: 1 uM TC-6987; for percent quench of YFP fluorescence, 10 uM tc6: 10 uM TC-6987; for percent quench of YFP fluorescence, 500 uM tc6: 500 uM TC-6987
Source text: (§1) FIGS. 1A-FIG. 1G show the heat maps of the percent quench of YFP fluorescence in the mutants of the engineered chimeric receptor SEQ ID NO:33 that comprise the indicated double amino acid substitutions following stimulation by various doses of either acetylcholine or the indicated non-native ligand. Ligand doses are written across the top of each chart. Numbers in the boxes indicate the absolute amount of quench observed. Dark blue=80% maximal quench of YFP reporter. Light blue=quench of 30-80%. White=10-30%. Orange=0-10% quench. Negative values represent non-responders that have a negative quench due to a stimulation artifact. SEQ ID NO:29 is a non-responding chimera used as a negative control. Abbreviations for non-native ligand names: abt: ABT-126; ach: acetylcholine; apn: APN-1125; azd: AZD-0328; brd: TC-5619; fac: RG3487; tc6: TC-6987.
(§2) Tables 2-8 below lists percent quench of YFP fluorescence following stimulation of the indicated engineered receptor by various doses of either acetylcholine or the non-native ligand.
(§3) To screen these mutant LGICs for those having novel response profiles to ligands, an anion reporter assay was developed to assess the function of channels in a high throughput format. In this assay, cells expressing a YFP reporter whose fluorescence is quenched in the presence of anion are transfected with DNA encoding the channel of interest. Upon exposure to ligand, channels that are activated will flux anion, resulting in a dose-dependent quench of the YFP that can be detected on a plate reader.
(§4) Lenti-X 293T cells (LX293T, Clontech) were maintained in DMEM containing 10% FBS and 1% penicillin/streptomycin (Invitrogen). […] Two days before assay, cells were split at a density of 20,000 cells/well in a 96-well tissue culture plate coated with poly-d lysine (Thermo Scientific). The next day, the cells were transiently transfected with 0.1 μg of DNA per well using standard Fugene protocol (Promega). On the day of assay, cells were washed 2 times in 1× extracellular solution (1×ECS: 140 mM NaCl, 5 mM KCl, 1 mM MgCl2, 2 mM CaCl2, 10 mM HEPES, 10 mM glucose, pH 7.2, mOsms 300). After the last wash, 100 μL of 1×ECS was added to the wells and the plate was incubated at 37° C. for 30 min. While incubating the plate, the drugs were diluted to a 2× concentration in 1×ECS-NaI (same components as 1×ECS except the 140 mM NaCl was replaced by 140 mM NaI). The plates were then read on a Flexstation3 (Molecular Devices). Each well, 8 wells at a time, of the plate is read for 2 min using a Flexstation3 (Molecular Devices) as follows: 1) a baseline YFP fluorescence is read for 17 sec, 2) 100 μL of ligand is added, and 3) the changes in YFP fluorescence are then measured every 1.3 sec for the remaining time.
(§5) FIG. 1 provides heat maps of the percent quench of YFP fluorescence following stimulation by various doses of either acetylcholine or the non-native ligand as indicated in the Figure. A positive fluorescence signal, as indicated by blue shaded cells, indicate that the engineered receptor is activated by the non-native ligand at that concentration. […] Table 12 lists the EC50 values for the indicated double mutants to acetylcholine (Ach) and TC-5619 as determined from the YFP fluorescence plate reader experiment.

[2] = YFP quench plate reader assay, response to AZD-0328; conditions: LX293T YFP reporter cells; for percent quench of YFP fluorescence, 100 nM azd: 100 nM AZD-0328; for percent quench of YFP fluorescence, 300 nM azd: 300 nM AZD-0328; for percent quench of YFP fluorescence, 30 uM azd: 30 uM AZD-0328
Source text: as §1, §2, §3, §4, §5

[3] = YFP quench plate reader assay, response to ABT-126; conditions: LX293T YFP reporter cells; for percent quench of YFP fluorescence, 50 nM abt: 50 nM ABT-126; for percent quench of YFP fluorescence, 100 nM abt: 100 nM ABT-126; for percent quench of YFP fluorescence, 300 nM abt: 300 nM ABT-126; for percent quench of YFP fluorescence, 1 uM abt: 1 uM ABT-126
Source text: as §1, §2, §3, §4, §5

[4] = YFP quench plate reader assay, response to TC-5619; conditions: LX293T YFP reporter cells
Source text: as §1, §2, §3, §4, §5

[5] = YFP quench plate reader assay, response to RG3487; conditions: LX293T YFP reporter cells; for percent quench of YFP fluorescence, 30 nM fac: 30 nM RG3487; for percent quench of YFP fluorescence, 300 nM fac: 300 nM RG3487; for percent quench of YFP fluorescence, 30 uM fac: 30 uM RG3487
Source text: as §1, §2, §3, §4, §5

[6] = YFP quench plate reader assay, response to APN-1125; conditions: LX293T YFP reporter cells; for percent quench of YFP fluorescence, 100 nM apn: 100 nM APN-1125; for percent quench of YFP fluorescence, 1 uM apn: 1 uM APN-1125; for percent quench of YFP fluorescence, 30 uM apn: 30 uM APN-1125
Source text: as §1, §2, §3, §4, §5

[7] = YFP quench plate reader assay, response to acetylcholine; conditions: LX293T YFP reporter cells; for percent quench of YFP fluorescence, 10 uM ach: 10 uM acetylcholine; for percent quench of YFP fluorescence, 100 uM ach: 100 uM acetylcholine; for percent quench of YFP fluorescence, 1 mM ach: 1 mM acetylcholine; for percent quench of YFP fluorescence, 3 mM ach: 3 mM acetylcholine
Source text: as §1, §2, §3, §4, §5

[8] = High throughput electrophysiology in HEK293T cells, AZD-0328; conditions: HEK293T cells, held at −60 mV
Description: To confirm the EC50s determined by plate reader as well as develop a better understanding of maximum current flow, the engineered receptors were subjected to high throughput electrophysiology system, as described below. For HEK293T studies, cDNAs encoding ion channels were cloned into pcDNA3.1 using standard recombination techniques. HEK293T cells from Clontech (Lenti-X™ 293T Cell Line) were cultured in DMEM supplemented with 10% FBS and 1% Pen/Strep to 40-50% confluence using standard cell culture protocols, transfected with ion channel plasmids at a concentration of 18 μg per 15 cm dish using Fugene 6, and grown for an additional 24 hours. Cells were then assayed on a electrophysiological system (IonFluxHT and/or Mercury, Fluxion Biosciences) in which dose-response relationships may be assessed through a microfluidics-based platform for establishing whole cell configurations. Ensemble plates were primed with extracellular buffer (140 mM NaCl, 5 mM KCl, 2 mM CaCl2), 1 mM MgCl2, 10 mM HEPES, and 10 mM glucose, pH 7.2 with NaOH, mOsm 310), intracellular buffer (145 mM CsCl, 2 mM CaCl2, 2 mM MgCl2, 10 mM HEPES, and 10 mM EGTA, pH 7.2 with CsOH, mOsm 305), as adapted from Lynagh and Lynch, and test compounds (stocks prepared fresh) diluted in extracellular buffer. Cells were then released from the plate with Accutase, centrifuged, resuspended in extracellular buffer, and loaded into Ensemble plates. Cells were then subjected to a standard protocol for priming, trapping, breaking, and establishing whole cell configuration, with cells held at −60 mV throughout the recording. After recording baseline, progressive doses of test compounds were applied using the IonFlux software to assess dose response relationships. Data were then analyzed off-line using custom Python scripts to convert data to .csv format, re-plot traces, and apply QC measurements to reject unstable recordings (i.e. thresholding based on access resistance and/or standard deviation in baseline, as well as artifact rejection). Peak currents were then calculated and population data were fit using a 4-parameter logistic equation as described by the Hill Equation. Currents were measured on an automated patch clamp system (Fluxion Biosciences) following 1 second addition of drug and the EC50 values calculated are tabulated below in Table 13.

Molecule	percent quench of YFP fluorescence, 1 uM tc6 [1]	percent quench of YFP fluorescence, 10 uM tc6 [1]	percent quench of YFP fluorescence, 500 uM tc6 [1]	percent quench of YFP fluorescence, 100 nM azd [2]	percent quench of YFP fluorescence, 300 nM azd [2]	percent quench of YFP fluorescence, 30 uM azd [2]	percent quench of YFP fluorescence, 50 nM abt [3]	percent quench of YFP fluorescence, 100 nM abt [3]	percent quench of YFP fluorescence, 300 nM abt [3]	percent quench of YFP fluorescence, 1 uM abt [3]	percent quench of YFP fluorescence, 30 nM fac [5]	percent quench of YFP fluorescence, 300 nM fac [5]	percent quench of YFP fluorescence, 30 uM fac [5]	percent quench of YFP fluorescence, 100 nM apn [6]	percent quench of YFP fluorescence, 1 uM apn [6]	percent quench of YFP fluorescence, 30 uM apn [6]	percent quench of YFP fluorescence, 10 uM ach [7]	percent quench of YFP fluorescence, 100 uM ach [7]	percent quench of YFP fluorescence, 1 mM ach [7]	percent quench of YFP fluorescence, 3 mM ach [7]	also measured
B1	−20.99%	−27.62%	−24.22%	−9.32%	4.94%	60.61%	−11.96%	−10.72%	11.65%	−3.06%	−23.44%	2.75%	61.44%	14.26%	45.55%	64.93%	−11.3%	−27.53%	2.84%	14.65%	percent quench of YFP fluorescence, 1 nM brd ([4]; 1 nM TC-5619): −1.13%; percent quench of YFP fluorescence, 3 nM brd ([4]; 3 nM TC-5619): −3.83%; percent quench of YFP fluorescence, 10 nM brd ([4]; 10 nM TC-5619): −3.78%; percent quench of YFP fluorescence, 100 nM brd ([4]; 100 nM TC-5619): −2.03%; percent quench of YFP fluorescence, 1 uM brd ([4]; 1 uM TC-5619): 1.68%; percent quench of YFP fluorescence, 10 uM fac ([5]; 10 uM RG3487): 69.71%
B2	–	–	–	–	–	–	–	–	–	–	–	–	–	–	–	–	–	–	–	–	EC50 AZD-0328 [8]: no activity
B3	–	–	–	–	–	–	–	–	–	–	–	–	–	–	–	–	–	–	–	–	EC50 AZD-0328 [8]: no activity
B4	−21.8%	−27.08%	−21.56%	−7.02%	−0.48%	70.16%	−11.09%	−10.37%	−4%	4.05%	−21.36%	4.17%	65.94%	1.23%	35.77%	68.29%	−12.24%	−26.23%	−1.16%	2.97%	–
